Consider 125 sequences from the supplement of paper PMC9112550, “Optimization of the antimicrobial peptide Bac7 by deep mutational scanning” (BMC Biology, 2022).

In the data set the test system is Escherichia coli TOP10. Nature of the data set: shrunken log2 fold change of peptide-encoding DNA abundance (4.5 h post-induction vs induction); higher = less antimicrobial activity (less host growth inhibition). Particulars: time post-induction: 4.5 h; library: site-saturation at positions 5, 18, 19, 20.
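Further: peptides expressed intracellularly from a pBAD plasmid library in pooled LB shake-flask culture, induced with 0.3% L-arabinose, DNA abundance read by NGS, three biological replicates, DESeq2 with apeglm shrinkage.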

In the case of RRIRYRPPRLPRPRPRPCYDPRP, the “shrunken log2 fold change” value was -0.379.
The result for RRIRRRPPRLPRPRPRPHYSPRP reads -0.538; that for RRIRHRPPRLPRPRPRPQKRPRP, -0.225.
The result for RRIRCRPPRLPRPRPRPQMKPRP reads -0.514; that for RRIRQRPPRLPRPRPRPPESPRP, 0.528; that for RRIRARPPRLPRPRPRPPPWPRP, 1.03.
The result for RRIRMRPPRLPRPRPRPSANPRP reads 2.44; that for RRIRHRPPRLPRPRPRPRAVPRP, 0.518; that for RRIRERPPRLPRPRPRPKDMPRP, 0.00303.
For RRIRQRPPRLPRPRPRPQWVPRP, the “shrunken log2 fold change” value was 0.0126.
With RRIRFRPPRLPRPRPRPPKAPRP the figure was 0.332; with RRIRLRPPRLPRPRPRPLPIPRP, -0.129.
The result for RRIRRRPPRLPRPRPRPMNFPRP reads 0.154; that for RRIRQRPPRLPRPRPRPTCHPRP, -0.552; that for RRIRFRPPRLPRPRPRPRDAPRP, 0.541.
With RRIRPRPPRLPRPRPRPWKYPRP the figure was -0.269; with RRIRLRPPRLPRPRPRPEEKPRP, 0.0262.
As for RRIRHRPPRLPRPRPRPHQHPRP, the “shrunken log2 fold change” value was -0.526.
Take RRIRLRPPRLPRPRPRPTYIPRP: the “shrunken log2 fold change” value was -0.304.
The result for RRIRQRPPRLPRPRPRPFVLPRP reads -0.277.
The result for RRIRWRPPRLPRPRPRPSDIPRP reads -0.031; that for RRIRKRPPRLPRPRPRPHPEPRP, 0.39.
With RRIRWRPPRLPRPRPRPPWYPRP the figure was -0.0946; with RRIRARPPRLPRPRPRPNEMPRP, -0.0653; with RRIRNRPPRLPRPRPRPQPSPRP, 0.186.
In the case of RRIRHRPPRLPRPRPRPEDFPRP, the “shrunken log2 fold change” value came to 0.0333.
With RRIRGRPPRLPRPRPRPCDRPRP the figure was 0.00287; with RRIRIRPPRLPRPRPRPRHMPRP, -0.12; with RRIRCRPPRLPRPRPRPHGAPRP, 0.0255.
The result for RRIRPRPPRLPRPRPRPYCAPRP reads -0.312; that for RRIRYRPPRLPRPRPRPMDAPRP, -0.00112.
In the case of RRIRSRPPRLPRPRPRPYSLPRP, the “shrunken log2 fold change” value is -0.35.
With RRIRMRPPRLPRPRPRPMYTPRP the figure was -0.71; with RRIRERPPRLPRPRPRPPAMPRP, -0.186.
Turning to RRIRIRPPRLPRPRPRPEHKPRP, the “shrunken log2 fold change” value was -0.199.
As to RRIRPRPPRLPRPRPRPIQGPRP, the “shrunken log2 fold change” value is -0.128.
Turning to RRIRQRPPRLPRPRPRPFVTPRP, the “shrunken log2 fold change” value was -1.13.
For the sequence RRIRTRPPRLPRPRPRPPIVPRP, the “shrunken log2 fold change” value was -0.175.
With RRIRERPPRLPRPRPRPKTGPRP the figure was -0.0863; with RRIRLRPPRLPRPRPRPAIGPRP, -0.00988.
With RRIRCRPPRLPRPRPRPVQYPRP the figure was -0.203; with RRIRNRPPRLPRPRPRPYPTPRP, -0.074; with RRIRSRPPRLPRPRPRPMSGPRP, 0.131.
With RRIRQRPPRLPRPRPRPRSKPRP, the “shrunken log2 fold change” value came out at 0.185.
Turning to RRIRCRPPRLPRPRPRPPFNPRP, the “shrunken log2 fold change” value is -0.137.
With RRIRNRPPRLPRPRPRPYHVPRP the figure was -0.116; with RRIRLRPPRLPRPRPRPMWAPRP, 0.0661; with RRIRHRPPRLPRPRPRPWRIPRP, -0.0502.
For RRIRRRPPRLPRPRPRPQMGPRP, the “shrunken log2 fold change” value was 0.231.
In the case of RRIRWRPPRLPRPRPRPQDEPRP, the “shrunken log2 fold change” value was -0.143.
The result for RRIRLRPPRLPRPRPRPLEVPRP reads -0.0281; that for RRIRTRPPRLPRPRPRPIQMPRP, -0.286; that for RRIRDRPPRLPRPRPRPQEDPRP, 0.399.
With RRIRRRPPRLPRPRPRPLAMPRP the figure was -0.0111; with RRIRDRPPRLPRPRPRPDTVPRP, -0.0743; with RRIRHRPPRLPRPRPRPSNVPRP, -0.00144.
With RRIRERPPRLPRPRPRPWCNPRP the figure was -0.112; with RRIRVRPPRLPRPRPRPPLFPRP, 0.256.
RRIRARPPRLPRPRPRPGFWPRP: the “shrunken log2 fold change” value is 0.682.
The result for RRIRCRPPRLPRPRPRPGWYPRP reads -0.244; that for RRIRARPPRLPRPRPRPPGHPRP, 0.779; that for RRIRFRPPRLPRPRPRPAFYPRP, -0.249.
The result for RRIRDRPPRLPRPRPRPAEGPRP reads 0.015; that for RRIRWRPPRLPRPRPRPDYEPRP, -0.0912.
Take RRIRERPPRLPRPRPRPITAPRP: the “shrunken log2 fold change” value was -0.573.
For the sequence RRIRRRPPRLPRPRPRPHGMPRP, the “shrunken log2 fold change” value was found to be 0.0957.
As to RRIRARPPRLPRPRPRPWPIPRP, the “shrunken log2 fold change” value is 0.179.
With RRIRHRPPRLPRPRPRPYFSPRP, the “shrunken log2 fold change” value was -0.129.
The result for RRIRMRPPRLPRPRPRPYLNPRP reads 0.00358.
In the case of RRIRLRPPRLPRPRPRPLFEPRP, the “shrunken log2 fold change” value worked out at 1.33.
As for RRIRGRPPRLPRPRPRPECSPRP, the “shrunken log2 fold change” value is 1.2.
RRIRYRPPRLPRPRPRPSPDPRP: the “shrunken log2 fold change” value was -0.0956.
As to RRIRTRPPRLPRPRPRPETRPRP, the “shrunken log2 fold change” value is -0.0794.
With RRIRARPPRLPRPRPRPAQGPRP the figure was 0.373.
With RRIRIRPPRLPRPRPRPREDPRP the figure was -0.036; with RRIRPRPPRLPRPRPRPNIFPRP, -0.189; with RRIRDRPPRLPRPRPRPMPQPRP, 0.0354.
The result for RRIRQRPPRLPRPRPRPTRGPRP reads 0.287; that for RRIRIRPPRLPRPRPRPEINPRP, -0.993.
Take RRIRVRPPRLPRPRPRPYNPPRP: the “shrunken log2 fold change” value was -0.492.
With RRIRCRPPRLPRPRPRPEMVPRP the figure was -0.0828.
For the sequence RRIRMRPPRLPRPRPRPNADPRP, the “shrunken log2 fold change” value is 2.51.
On to RRIRMRPPRLPRPRPRPQVSPRP, for which the “shrunken log2 fold change” value worked out at 0.399.
As for RRIRPRPPRLPRPRPRPAKDPRP, the “shrunken log2 fold change” value was -0.111.
With RRIRVRPPRLPRPRPRPKNWPRP the figure was 0.185.
With RRIRKRPPRLPRPRPRPQYQPRP the figure was -0.11; with RRIRIRPPRLPRPRPRPCKFPRP, -0.549.
Regarding RRIRIRPPRLPRPRPRPGIMPRP, the “shrunken log2 fold change” value is -0.137.
The result for RRIRPRPPRLPRPRPRPRWPPRP reads 0.616; that for RRIRDRPPRLPRPRPRPGTLPRP, -0.00146; that for RRIRCRPPRLPRPRPRPCDIPRP, -0.0278.
With RRIRMRPPRLPRPRPRPAHSPRP the figure was 0.111; with RRIRARPPRLPRPRPRPRQLPRP, 0.449.
With RRIRSRPPRLPRPRPRPYKQPRP the figure was -0.62; with RRIRRRPPRLPRPRPRPPMRPRP, 1.03; with RRIRRRPPRLPRPRPRPKWFPRP, -0.0159.
With RRIRGRPPRLPRPRPRPGEWPRP, the “shrunken log2 fold change” value is -0.0156.
As for RRIRYRPPRLPRPRPRPDAGPRP, the “shrunken log2 fold change” value was -0.492.
As for RRIRTRPPRLPRPRPRPYKLPRP, the “shrunken log2 fold change” value was -0.215.
For RRIRGRPPRLPRPRPRPQHHPRP, the “shrunken log2 fold change” value is -0.102.
As to RRIRLRPPRLPRPRPRPHRMPRP, the “shrunken log2 fold change” value was -0.0961.
With RRIRRRPPRLPRPRPRPVTTPRP the figure was 0.48.
With RRIRLRPPRLPRPRPRPAVVPRP the figure was 0.028; with RRIRWRPPRLPRPRPRPPFIPRP, -0.117.
In the case of RRIRYRPPRLPRPRPRPHTEPRP, the “shrunken log2 fold change” value was -0.0196.
With RRIRLRPPRLPRPRPRPARWPRP the figure was 0.284; with RRIRGRPPRLPRPRPRPFWYPRP, -0.0145; with RRIRDRPPRLPRPRPRPLGVPRP, 0.577.
With RRIRMRPPRLPRPRPRPIHEPRP the figure was -0.301.
Regarding RRIRKRPPRLPRPRPRPTNGPRP, the “shrunken log2 fold change” value worked out at 0.0599.
Regarding RRIRIRPPRLPRPRPRPEDCPRP, the “shrunken log2 fold change” value came out at 0.00952.
The result for RRIRIRPPRLPRPRPRPASPPRP reads -0.0763; that for RRIRKRPPRLPRPRPRPYNDPRP, -0.00691; that for RRIRERPPRLPRPRPRPTIAPRP, -0.25.
In the case of RRIRLRPPRLPRPRPRPMTCPRP, the “shrunken log2 fold change” value was -0.252.
For RRIRVRPPRLPRPRPRPHMSPRP, the “shrunken log2 fold change” value is -0.405.
The result for RRIRHRPPRLPRPRPRPIVKPRP reads -0.19; that for RRIRDRPPRLPRPRPRPVGLPRP, 0.627.
The result for RRIRKRPPRLPRPRPRPIDLPRP reads -0.0822; that for RRIRQRPPRLPRPRPRPHPFPRP, -0.29.
Regarding RRIRWRPPRLPRPRPRPLRFPRP, the “shrunken log2 fold change” value worked out at 0.399.
Take RRIRDRPPRLPRPRPRPKLWPRP: the “shrunken log2 fold change” value stood at 0.527.
Turning to RRIRCRPPRLPRPRPRPSKYPRP, the “shrunken log2 fold change” value was -0.635.
Consider RRIRFRPPRLPRPRPRPFEMPRP, for which the “shrunken log2 fold change” value is -0.0734.
Consider RRIRTRPPRLPRPRPRPLAAPRP, for which the “shrunken log2 fold change” value came out at 0.363.
